Entries after “also recorded” stand apart in the source; their conditions may differ.
How the values were obtained:
[1] = system: RSV; test: Virus challenge: viable virus in lung homogenates on Hep-2 monolayers; assay type: in vivo, Mice; conditions: single IN dose ~2.25 mg/Kg (15% of dose) 3 hours after infection with 1.3×10^5 PFU, 100 ul per well
Description: Mice were challenged with 1.3×10^5 plaque forming units. Three hours after infection a test group was treated with a single dose of Palivizumab IN (˜2.25 mg/Kg) and a control group received saline. Three days after infection, lung tissue was collected and homogenized. The subsequent homogenates were dispensed onto Hep-2 monolayers and the cultures were monitored for evidence of viable virus. The total homogenate volume recovered from each animal was approximately 1.5 to 2 mls and the amount placed in each test well was 100 ul.

[2] = system: RSV; test: Synagis plaque assay in vitro; assay type: cell-based; conditions: FIG. 8
[3] = system: B 16F10 melanoma cells; test: Effects of routes of IL-12 administration on mortality of tumor-containing mice; assay type: in vivo, C57BL/6J mice; conditions: Day 28
Description: (§1) C57BL/6J mice (Charles Rivers Labs, Inc) were inoculated SC with 1×10^6 B 16F10 melanoma cells (ATCC) on the upper right flank. One week following tumor inoculation (Day 7), the mice were randomized and treated with 100 ng rmIL-12 (R&D Systems) in 50 μL PBS solution through either ID or SC injections near tumor inoculation site, or an IP injection (n=25/condition). An additional condition of ID controls was run using 50 μL PBS solution alone. ID treatment was administered with a 34G, 1 mm needle using a modified mantoux method. SC and IP doses were given with standard 25G×¾″ needle. Treatment was continued every other day through Day 13 for a total of four doses. Tumor measurements in mm^2 (length×width) were collected on Days 7, 11, 14, 18, 21, 25 and 28. Blood samples were collected on Days 0, 14, 21 and 28 for IL-12 and IFN-gamma analysis. Draining lymph node and spleen tissue samples were collected from five animals in each condition on Days 14 and 24 for FACS analysis of CD49b (NK) cells. Mortality data were collected on 10 pre-selected animals that were not used for blood sampling or FACS analysis from each condition. Mortality was determined through either natural death or euthanasia due to tumor size of greater than 400 mm^2. Statistical data were calculated using a t-Test: Two-Sample Assuming Unequal Variances. See, e.g., Brunda, M., J. Exp. Med., 178: 1223-1230 (1993) and Leonard et al., Blood, 90: 2541-2548 (1997), both of which are incorporated herein by reference.

[4] = system: B16F10 melanoma cells; test: Effects of ID and IP delivery on antitumor activity of IL-12 (10 and 100 ng), tumor size; assay type: in vivo, C57BL Mice; conditions: for tumor size increase: by day 21
Description: (§2) C57BL Mice were inoculated subcutaneously (SC) with 1 million B16F10 melanoma cells (ATCC, Inc.). Treatment was initiated with IL-12 injections 7 days post-inoculation at two levels (10 and 100 ng) given as either an intraperitoneal (IP) or intradermal (ID) (tumor bearing side) dose. IL-12 doses were repeated every other day for a total of 4 treatments. As a control, the same volume of complete medium (PBS) was injected ID on the tumor bearing side. True negatives were also run in conjunction for serum and tissue samples (n=15/condition). Weights and tumor size were measured on days 7, 11, 14, 18 and 21. Blood samples were also collected at weekly intervals for IL-12 analysis. Two tumor diameters at right angles were measured with digital calipers, and the average tumor size was plotted with respect to days post inoculation with tumor cells.

[5] = system: B16F10 melanoma cells; test: Effects of site of ID delivery (tumor side vs contralateral side) on antitumor activity of IL-12; assay type: in vivo, C57BL Mice
Description: as §2, with “at” for “at two levels (10 and”, “ng” for “ng)”, “as” for “as either”, “ID dose on the tumor bearing” for “intraperitoneal (IP)”, “contralateral side” for “intradermal (ID) (tumor bearing side)”, “analysis. Draining lymph node and spleen samples were collected at 14 and 24 days for T cell, B cell and NK cell, and GP100 FACS analysis was performed.” for “analysis.”

[6] = system: B 16F10 melanoma cells; test: Effects of routes of IL-12 delivery (ID, SC, IP) on tumor growth, 100 ng dose; assay type: in vivo, C57BL/6J mice
Description: as §1

[7] = system: CD49b (NK) cells; test: NK cells count in draining lymph node by FACS analysis; assay type: in vivo, C57BL/6J mice; conditions: ID delivery vs other conditions
Description: C57BL/6J mice (Charles Rivers Labs, Inc) were inoculated SC with 1×10^6 B 16F10 melanoma cells (ATCC) on the upper right flank. One week following tumor inoculation (Day 7), the mice were randomized and treated with 100 ng rmIL-12 (R&D Systems) in 50 μL PBS solution through either ID or SC injections near tumor inoculation site, or an IP injection (n=25/condition). An additional condition of ID controls was run using 50 μL PBS solution alone. ID treatment was administered with a 34G, 1 mm needle using a modified mantoux method. SC and IP doses were given with standard 25G×¾″ needle. Treatment was continued every other day through Day 13 for a total of four doses. […] Mortality was determined through either natural death or euthanasia due to tumor size of greater than 400 mm^2. Statistical data were calculated using a t-Test: Two-Sample Assuming Unequal Variances. […]
The right side superficial inguinal draining lymph node (DLN) and the spleen were excised individually from 5 mice per each treatment group into Petri dishes containing cold HBSS (Invitrogen Life Technologies, Carlsbad, Calif.) for the DLN. […] The washed cells were resuspended in 1 ml of cold FacsFlow buffer and kept on ice in the dark until analyzed by flow cytometry using a FACS Vantage SE. Cell analysis was designed to exclude B cells and quantify CD4+ cells, CD8+ cells, and CD49b+ (NK cells). […]

For “Palivizumab: RSV Specific MAB (Palivizumab), Synagis, humanized antibody”, which “Lung Tissue Collected @ 72 Hours Post Infection (assayed straight), PFU” value [1] is on record?
The value was “no plaque forming units were observed; also recorded: No PFU Observed”.

And the “peak lung antibody concentration relative to any other delivery route” value (IN 100 μl group, 15 mg/kg)?
Its value is “at least 2 times”.

And the “persistence of IN-delivered antibody in lung” value (IN delivery)?
Its value is “short lived”.

What about the “concentration of antibody capable of blocking high numbers of virus” value [2] of the same molecule?
Its value is 6 µg/mL.

B1: IL-12: rmIL-12 (R&D Systems), interleukin-12 cytokine given in PBS solution (protein, UniProt P43431 23-215; P43432 23-335, looked up)
Interleukin-12 subunit alpha: RVIPVSGPARCLSQSRNLLKTTDDMVKTAREKLKHYSCTAEDIDHEDITRDQTSTLKTCLPLELHKNESCLATRETSSTTRGSCLPPQKTSLMMTLCLGSIYEDLKMYQTEFQAINAALQNHNHQQIILDKGMLVAIDELMQSLNHNGETLRQKPPVGEADPYRVKMKLCILLHAFSTRVVTINRVMGYLSSA
Interleukin-12 subunit beta: MWELEKDVYVVEVDWTPDAPGETVNLTCDTPEEDDITWTSDQRHGVIGSGKTLTITVKEFLDAGQYTCHKGGETLSHSHLLLHKKENGIWSTEILKNFKNKTFLKCEAPNYSGRFTCSWLVQRNMDLKFNIKSSSSSPDSRAVTCGMASLSAEKVTLDQRDYEKYSVSCQEDVTCPTAEETLPIELALEARQQNKYENYSTSFFIRDIIKPDPPKNLQMKPLKNSQVEVSWEYPDSWSTPHSYFSLKFFVRIQRKKEKMKETEEGCNQKGAFLVEKTSTEVQCKGGNVCVQAQDRYYNSSCSKWACVPCRVRS
Which “survivability compared to delivery through other routes or control” value ([3]; ID delivery) does the source give for B1 here?
The value was “greater than 200%”.

What about the surviving animals ([3]; ID delivery 100 ng) of the same molecule?
The surviving animals was 7 out of 10.

And the surviving animals ([3]; IP delivery 100 ng)?
The surviving animals was 3 out of 10.

What about the surviving animals ([3]; SC delivery 100 ng) of the same molecule?
The surviving animals was 3 out of 10.

What about the average tumor size ([4]; 10 ng, ID, Day 11) of the same molecule?
The average tumor size was 77 mm^2.

What about the average tumor size ([4]; 10 ng, ID, Day 14) of the same molecule?
Its average tumor size is 120 mm^2.

What about the “tumor size increase from the previous measurement” value ([4]; 10 ng, ID, Day 14) of the same molecule?
Its value is 56%.

And the average tumor size ([4]; 10 ng, ID, Day 18)?
Its average tumor size is 112 mm^2.

What about the “tumor size decrease from the previous measurement” value ([4]; 10 ng, ID, Day 18) of the same molecule?
Its value is 6%.

What about the average tumor size ([4]; 10 ng, ID, Day 21) of the same molecule?
The average tumor size was 250 mm^2.

What about the “tumor size increase from the previous measurement” value ([4]; 10 ng, ID, Day 21) of the same molecule?
The value was 121%.

What about the average tumor size ([4]; 10 ng, IP, Day 11) of the same molecule?
Its average tumor size is 68 mm^2.

And the average tumor size ([4]; 10 ng, IP, Day 14)?
Its average tumor size is 113 mm^2.

What about the “tumor size increase from the previous measurement” value ([4]; 10 ng, IP, Day 14) of the same molecule?
Its value is 63%.

What about the average tumor size ([4]; 10 ng, IP, Day 18) of the same molecule?
Its average tumor size is 206 mm^2.

What about the “tumor size increase from the previous measurement” value ([4]; 10 ng, IP, Day 18) of the same molecule?
The value was 82%.

And the average tumor size ([4]; 10 ng, IP, Day 21)?
The average tumor size was 262 mm^2.

What about the “tumor size increase from the previous measurement” value ([4]; 10 ng, IP, Day 21) of the same molecule?
The value was 27%.

And the “final average ID tumor size smaller than IP” value ([4]; 100 ng, Day 21)?
Its value is 47%.

What about the average tumor size ([4]; 100 ng, ID, Day 11) of the same molecule?
The average tumor size was 54 mm^2.

What about the average tumor size ([4]; 100 ng, ID, Day 14) of the same molecule?
Its average tumor size is 75 nm^2.

And the “tumor size increase from the previous measurement” value ([4]; 100 ng, ID, Day 14)?
The value was 39%.

And the average tumor size ([4]; 100 ng, ID, Day 21)?
Its average tumor size is 142 mm^2.

And the tumor size increase ([4]; 100 ng, ID)?
The tumor size increase was 89%.

And the average tumor size ([4]; 100 ng, IP, Day 11)?
The average tumor size was 70 mm^2.

And the average tumor size ([4]; 100 ng, IP, Day 14)?
Its average tumor size is 126 mm^2.

And the “tumor size increase from the previous measurement” value ([4]; 100 ng, IP, Day 14)?
Its value is 80%.

What about the average tumor size ([4]; 100 ng, IP, Day 21) of the same molecule?
Its average tumor size is 302 mm^2.

And the tumor size increase ([4]; 100 ng, IP)?
Its tumor size increase is 139%.

And the “effectiveness relative to other conditions” value ([5]; 100 ng ID contralateral side)?
Its value is “not as effective as those dosed near the tumor, but were better than the IP condition”.

What about the tumor size ([5]; 100 ng ID contralateral side (IDcs), Day 14) of the same molecule?
The tumor size was 75 mm^2.

And the “overall tumor growth reduction” value ([5]; 100 ng ID near the tumor injection site)?
Its value is “greatest reduction in overall tumor growth”.

What about the tumor size ([5]; 100 ng ID tumor side (IDts), Day 14) of the same molecule?
The tumor size was 75 mm^2.

What about the tumor size increase ([5]; 100 ng IDcs, Day 14 to Day 18) of the same molecule?
The tumor size increase was 91%.

What about the tumor size ([5]; 100 ng IDcs, Day 18) of the same molecule?
Its tumor size is 43 mm^2.

And the tumor size increase ([5]; 100 ng IDcs, Day 18 to Day 21)?
The tumor size increase was 29%.

What about the tumor size increase ([5]; 100 ng IDts, Day 14 to Day 18) of the same molecule?
The tumor size increase was 68%.

What about the tumor size ([5]; 100 ng IDts, Day 18) of the same molecule?
The tumor size was 126 mm^2.

And the tumor size increase ([5]; 100 ng IDts, Day 18 to Day 21)?
The tumor size increase was 14%.

What about the tumor size ([5]; 100 ng IDts, Day 21) of the same molecule?
Its tumor size is 142 mm^2.

And the “final tumor size for IDts smaller than IDcs” value ([5]; 100 ng, Day 21)?
The value was 23%.

What about the “Mean (tumor measurement, length x width)” value ([6]; Day 18, ID 100 ng) of the same molecule?
The value was 62.29 mm^2.

And the “Mean (tumor measurement, length x width)” value ([6]; Day 18, IP 100 ng)?
Its value is 158.2458 mm^2.

And the “Mean (tumor measurement, length x width)” value ([6]; Day 18, SC 100 ng)?
Its value is 199.7379 mm^2.

And the “Mean (tumor measurement, length x width)” value ([6]; Day 28, ID 100 ng)?
The value was 127.2 mm^2.

And the “Mean (tumor measurement, length x width)” value ([6]; Day 28, IP 100 ng)?
The value was 383.7 mm^2.

And the “Mean (tumor measurement, length x width)” value ([6]; Day 28, SC 100 ng)?
Its value is 352.9 mm^2.

What about the “inhibition of tumor growth” value ([6]; ID delivery, 100 ng, only route with effect (FIG. 1)) of the same molecule?
Its value is “significant effects on inhibiting the tumor growth”.

What about the “NK cells in DLN” value ([7]; Day 14 (one day post regimen)) of the same molecule?
The value was “increase in NK cells is apparent”.

And the “NK cells in DLN” value ([7]; Day 24)?
The value was “relative increase above the other conditions”.
